The text below walks through data of US20180296707A1, “PHARMACEUTICAL FORMULATION AND METHOD OF PREPARING THE SAME” (SeeCure Taiwan Co., Ltd., priority 2017, published 2018).

Series [1] in a line: PET/CT imaging, tumor/muscle count density in colorectal tumor models.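 Note: human colorectal tumors grown on the hind legs of athymic nude mice, imaged by micro-PET/CT 21 to 28 days post inoculation, once tumors reached roughly 0.5 cm across.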 In kind it is in vivo, athymic nude mice. The note with it: athymic nude, tumor/muscle, 500 uCi/mouse, total radioactivity, 500 μCi/mouse iv.
Procedure: (§1) Briefly, athymic nude mice (15±2 g) bearing human tumors (at hind legs) derived from the colorectal and pancreatic cell line were used for imaging studies. Studies were performed 21 to 28 days after inoculation when tumors were approximately 0.5 cm in diameter. Scintigraphic images were obtained either from a micro-PET (Inveon) embedded in the gantries coordinate PET/CT data acquisition. […] The static images were obtained at 0.5, 1 and 2 hrs.
The test system of the next series is human colorectal tumor. The series is described as above. In kind it is in vivo, athymic nude mice. The note with it: 500 μCi/mouse iv.
In the next series the test system is human pancreatic tumor. Briefly: PET/CT imaging, tumor/muscle count density in pancreatic tumor models. The note with it: human pancreatic-tumor bearing mouse, FIG. 12.
Another series addresses SSTR3 (Homo sapiens, UniProt P32745). The note with it: background statement; cited from earlier work.
The target of a further series is SSTR2 (Homo sapiens, UniProt P30874). The note with it: background statement; cited from earlier work.
Chain of SSTR2 (P30874 whole entry, species assumed): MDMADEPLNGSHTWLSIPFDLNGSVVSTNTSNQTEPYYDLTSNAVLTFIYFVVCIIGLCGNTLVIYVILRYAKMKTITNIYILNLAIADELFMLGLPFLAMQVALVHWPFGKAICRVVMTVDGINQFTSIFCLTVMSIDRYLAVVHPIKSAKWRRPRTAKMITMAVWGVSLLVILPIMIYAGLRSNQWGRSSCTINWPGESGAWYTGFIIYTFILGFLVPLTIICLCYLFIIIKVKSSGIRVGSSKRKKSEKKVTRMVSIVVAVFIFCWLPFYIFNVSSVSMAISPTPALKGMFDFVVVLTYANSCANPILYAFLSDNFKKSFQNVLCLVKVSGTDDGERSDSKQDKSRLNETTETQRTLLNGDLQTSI

Chain of SSTR3 (P32745 whole entry, species assumed): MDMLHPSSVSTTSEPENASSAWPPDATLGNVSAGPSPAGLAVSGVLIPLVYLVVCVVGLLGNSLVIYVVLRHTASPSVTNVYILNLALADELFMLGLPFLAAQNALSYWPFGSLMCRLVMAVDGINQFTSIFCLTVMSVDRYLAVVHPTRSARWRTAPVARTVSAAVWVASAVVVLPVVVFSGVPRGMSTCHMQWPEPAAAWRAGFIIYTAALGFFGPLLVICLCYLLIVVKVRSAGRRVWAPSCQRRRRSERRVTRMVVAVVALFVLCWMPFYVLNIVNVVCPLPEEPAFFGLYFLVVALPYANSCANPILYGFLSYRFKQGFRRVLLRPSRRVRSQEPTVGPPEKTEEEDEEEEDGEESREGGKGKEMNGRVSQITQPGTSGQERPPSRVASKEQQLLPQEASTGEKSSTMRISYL
Procedure for human colorectal tumor: as §1
Procedure for human pancreatic tumor: as §1

As for `C[C@@H](O)[C@H](NC(=O)[C@@H]1CSSC[C@H](NC(=O)[C@@H](Cc2ccccc2)NC(=O)CN2CCN(CC(=O)O)CCN(CC(=O)O)CCN(CC(=O)O)CC2)C(=O)N[C@@H](Cc2ccc(O)cc2)C(=O)N[C@H](Cc2c[nH]c3ccccc23)C(=O)N[C@@H](CCCCN)C(=O)N[C@@H]([C@@H](C)O)C(=O)N1)C(=O)O` [^68Ga-DOTATATE, metal not drawn], the tissue to tissue ratio in series [1] (colorectal tumor-bearing mice, dynamic images 0 to 30 minutes, read-out: average tumor/muscle (T/M) count density ratios, approximate range) was 1.2. In series [1] (frame 0, midpoint 15 sec), the tissue to tissue ratio at 15 s was 1.2. The tissue to tissue ratio at 0.5 min in series [1] (frame 1, midpoint 30 sec) was found to be 1.05. Also, the tissue to tissue ratio at 45 s in series [1] (frame 2, midpoint 45 sec) was determined as 1.26. The tissue to tissue ratio at 1 min in series [1] (frame 3, midpoint 60 sec) turned out to be 1.27. Further, in series [1] (frame 4, midpoint 90 sec), the tissue to tissue ratio at 0.025 h stood at 1.24. Also, in series [1] (frame 5, midpoint 120 sec), the tissue to tissue ratio at 2 min is 1.3. The tissue to tissue ratio at 0.05 h in series [1] (frame 6, midpoint 180 sec) was found to be 1.21. Further, in series [1] (frame 7, midpoint 240 sec), the tissue to tissue ratio at 4 min is 1.3. The tissue to tissue ratio at 5 min in series [1] (frame 8, midpoint 300 sec) was 1.3. Also, the tissue to tissue ratio at 0.1 h in series [1] (frame 9, midpoint 360 sec) is 1.23. Moreover, the tissue to tissue ratio at 0.15 h in series [1] (frame 10, midpoint 540 sec) is 1.25. Besides, in series [1] (frame 11, midpoint 720 sec), the tissue to tissue ratio at 0.2 h came to 1.3. In series [1] (frame 12, midpoint 900 sec), the tissue to tissue ratio at 0.25 h was determined as 1.29. For the same compound, the tissue to tissue ratio at 20 min in series [1] (frame 13, midpoint 1200 sec) is 1.42. In addition, in series [1] (frame 14, midpoint 1500 sec), the tissue to tissue ratio at 25 min was found to be 1.44. Moreover, the tissue to tissue ratio at 0.5 h in series [1] (frame 15, midpoint 1800 sec) was found to be 1.55. Moreover, the Muscle count density in the series with human colorectal tumor (frame 0, midpoint 15 sec) turned out to be 0.242; with human colorectal tumor (frame 1, midpoint 30 sec) it was 0.273; with human colorectal tumor (frame 2, midpoint 45 sec), 0.237; with human colorectal tumor (frame 3, midpoint 60 sec), 0.255; with human colorectal tumor (frame 4, midpoint 90 sec) it was 0.238; in the series on human colorectal tumor (frame 5, midpoint 120 sec), 0.227. Also, the Muscle count density is reported as 0.235 with human colorectal tumor (frame 6, midpoint 180 sec); 0.233 in the series with human colorectal tumor (frame 7, midpoint 240 sec); 0.231 in the series with human colorectal tumor (frame 8, midpoint 300 sec); 0.232 in the series on human colorectal tumor (frame 9, midpoint 360 sec); 0.230 with human colorectal tumor (frame 10, midpoint 540 sec); 0.231 in the series on human colorectal tumor (frame 11, midpoint 720 sec). The Muscle count density in the series with human colorectal tumor (frame 12, midpoint 900 sec) amounted to 0.227; in the series with human colorectal tumor (frame 13, midpoint 1200 sec), 0.206; in the series with human colorectal tumor (frame 14, midpoint 1500 sec) it was 0.200; in the series on human colorectal tumor (frame 15, midpoint 1800 sec) it was 0.180. Also, the Tumor count density is on record as 0.290 in the series with human colorectal tumor (frame 0, midpoint 15 sec); 0.286 with human colorectal tumor (frame 1, midpoint 30 sec); 0.298 in the series on human colorectal tumor (frame 2, midpoint 45 sec); 0.324 with human colorectal tumor (frame 3, midpoint 60 sec); 0.296 with human colorectal tumor (frame 4, midpoint 90 sec); 0.296 in the series on human colorectal tumor (frame 5, midpoint 120 sec). Besides, the Tumor count density in the series on human colorectal tumor (frame 6, midpoint 180 sec) is listed as 0.284; in the series with human colorectal tumor (frame 7, midpoint 240 sec) it was 0.303; in the series with human colorectal tumor (frame 8, midpoint 300 sec), 0.300; in the series on human colorectal tumor (frame 9, midpoint 360 sec) it was 0.286; in the series with human colorectal tumor (frame 10, midpoint 540 sec), 0.287; in the series on human colorectal tumor (frame 11, midpoint 720 sec), 0.300. The Tumor count density is listed as 0.294 with human colorectal tumor (frame 12, midpoint 900 sec); 0.292 in the series with human colorectal tumor (frame 13, midpoint 1200 sec); 0.288 with human colorectal tumor (frame 14, midpoint 1500 sec); 0.279 in the series with human colorectal tumor (frame 15, midpoint 1800 sec).

`O=C([O-])CN1CCN(CC(=O)[O-])CCN(CC(=O)O)CCN(CC(=O)[O-])CC1.[68Ga+3]` [^68Ga-DOTA]: in the series on human pancreatic tumor, the “bladder uptake (PET/CT)” value is given as “high bladder uptake”, the “clearance (PET/CT)” value was “fast clearance” and the “visualization of neuroendocrine tumors by PET/CT” value was “could not be used to visualize neuroendocrine tumors”.

As for `C[C@@H](O)[C@@H]1NC(=O)[C@H](CCCCN)NC(=O)[C@@H](Cc2c[nH]c3ccccc23)NC(=O)[C@H](Cc2ccccc2)NC(=O)[C@@H](NC(=O)[C@H](N)Cc2ccccc2)CSSC[C@@H](C(=O)N[C@H](CO)[C@@H](C)O)NC1=O` [octreotide], at SSTR3, the “affinity to SSTR3 subtype” value is recorded as “low affinity”. In addition, the “affinity to SSTR2 subtype” value at SSTR2 is reported as “high affinity”.
